T1: human DLL3 antigen (human, UniProt Q9NYJ7 27-492, limits assumed)
T1 construct: also called immobilized human DLL3; recombinant human DLL3
T1 sequence (looked up): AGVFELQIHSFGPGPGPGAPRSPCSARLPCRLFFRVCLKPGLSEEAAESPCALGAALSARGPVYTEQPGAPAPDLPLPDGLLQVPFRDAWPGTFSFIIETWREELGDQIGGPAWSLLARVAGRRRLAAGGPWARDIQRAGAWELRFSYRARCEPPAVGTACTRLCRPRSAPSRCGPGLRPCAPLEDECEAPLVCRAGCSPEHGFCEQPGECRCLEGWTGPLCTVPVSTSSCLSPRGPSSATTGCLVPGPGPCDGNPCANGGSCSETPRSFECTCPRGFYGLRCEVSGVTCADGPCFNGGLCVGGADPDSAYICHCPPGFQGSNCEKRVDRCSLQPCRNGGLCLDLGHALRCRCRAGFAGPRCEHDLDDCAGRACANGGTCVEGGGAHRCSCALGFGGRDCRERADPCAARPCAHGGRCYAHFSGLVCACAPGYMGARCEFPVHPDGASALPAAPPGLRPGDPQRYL

B1: SC16.114 (antibody, V domains shown)
VH: EVQLQQSGAELVKPGASVKLSCTASGFNIKDTYIHWVKQRPEQGLEWIGRIDPANGNTKYDPKFQGKATITPDTSSNTAYLQLSSLTSEDTAVYYCARSWRNYGSSFWYFDVWGAGTTVTVSS
VL: QIVLSQSPAILSASPGEKVTMTCRASSSVSYMHWYQQKPGSSPKPWIYATSNLASGVPARFSGSGSGTSYSLTISRVEAEDAATYYCQQWSSNPYTFGGGTKLEIKR
notes: murine mAb
B2: SC16.117 (antibody, V domains shown)
VH: QVQLKESGPGLVAPSQSLSIPCTVSGFSLTNYGVHWVRQPPGKGLEWLGVIWAGGITNYNSALMSRLSISEDNSKSQVFLKMNSLQTDDTAMYYCARNLGPYAMDYWGQGTSVTVSS
VL: DIQMNQSPSSLSASLGDTITITCHVSQNINVWLSWYQQKPGNIPKLLIQKASNLHTGVPSRFSGSGSGTGFTLTISSLQPEDIATYYCQQGQSYPFTFGSGTKLEIK
notes: murine mAb
B3: SC16.125 (antibody, V domains shown)
VH: DVQLQESGPDLVKPSQSLSLTCTVTGYSITSGYSWHWIRQFPGNKLEWMGYIHYSGSTNYNPSLKSRISITRDTSKNQFFLQFKSVTTEDSATYYCALEGNYDGFAYWGQGTLVTVS
VL: DIQMNQSPSSLSASLGDTITITCHASQNINVWLSWYQQKPGNIPKLLIYKASILHTGVPSRFSGSGSGTGFTLTISSLQPEDIATYSCQQGQSYPYTFGGGTKLEIK
notes: murine mAb
B4: SC16.126 (antibody, V domains shown)
VH: QVQMKESGPGLVAPSQSLSITCTVSGSSLTNYGVHWVRQPPGKGLEWLGVIWAGGSTNYNSALMSRLSISKDNSKSQVFLKMNSLQTDDTAMYYCARDWEGWFAYWGQGTLVTVSA
VL: DIQMNQSPSSLSASLGDTITITCHASQNINVWLSWYQQKPGNIPKLLIYKASNLHTGVPSRFSGSGSGTGFTLTISSLQPEDIATYYCQQGQSYPFTFGSGTKLEIK
notes: murine mAb
B5: SC16.149 (antibody, V domains shown)
VH: QVQLKESGPGLVAPSQSLSITCAVSGFSLTSFGVHWVRQPPGKGLEWLGVIWAGGSTNYYSALMSRLSISIDNSKSQVFLKMNSLQTDDTAMYYCARDWEGWFAYWGQGTLVTVSA
VL: DIQMNQSPSSLSASLGDTITITCHASQNINVWLSWYQQKPGNIPKLLIYKASHLHTGVPSRLSGSGSGTGFTLTISSLQPEDIATYYCQQGQSYPFTFGSGTTLEIK
notes: murine mAb
B6: SC16.133 (antibody, V domains shown)
VH: QVQLKESGPGLVAPSQSLSITCTVSGFSLTNYAVHWVRQSPGKGLEWLGVIWSDGSTDYNAAFISRLSISKDNSKSQVFFKMNSLQADDTAMYYCARKKGGWFPWFAYWGQGTLVTVSA
VL: SIVMTQTPKFLLVSAGDRVTITCKASQSVSNDVAWYQQKPGQSPKLLIYCASNRYTGVPDRFTGSGYGTDFTFTISTVQAEDLAVYFCQQDYSSPLTFGAGTKLELK
notes: murine mAb
B7: SC16.13 (antibody, V domains shown)
VH: QVTLKESGPGILQPSQTLSLTCSFSGFSLSTSGMGVGWIRQPSGKGLEWLAHIWWDDVKRYNPALKSRLTISKDTSSSQVFLKIASVDTADTATYYCARIVSFDNDVVSAMDYWGQGTSVTVSS
VL: QIVLTQSPALVSASPGEKVTMTCSASSSVSYMYWYQQKPRSSPKPWIYLTSNLASGVPARFSGSGSGTSYSLTISSMEAEDAATYYCQQWRSNPFTFGSGTKLEIK
notes: murine mAb
B8: SC16.130 (antibody, V domains shown)
VH: EVQLQQSGPELVKPGASVKMSCKASGYTFTSYVMHWVKQKPGQGLEWIGYINPYNDGTEYNEKFKGKATLTSDKSSSTAYMELSSLTSEDSAVYYCARGVYDGYSYFDYWGQGTTLTVSS
VL: DIQLTQSPASLSASVGETVTITCRASGSIHNYLAWYQQKQGKSPQLLVYNAKTLVDGVPSRFSGSGSGTQYSLKINSLQPEDFGYYYCQHFWTTPWTFGGGTKLEIK
notes: murine mAb
B9: SC16.136 (antibody, V domains shown)
VH: EFQLQQSGPELVKPGASVKMSCKASGYTFTSYVMHWVKQKPGQGLEWIGYINPYNDGTKYNEKFKGKATLTSDKSSSTAYMELSSLTSEDSAVYYCARDRSGYEDYYGMDYWGQGTSVTVSS
VL: DIQMTQSPASLSASVGETVTITCRASGNIHNYLAWYQQKQGKSPHLLVYNAKTLADGVPSRFSGSGSGTQYSLKINSLQPEDFGSYYCQHFWSTPWTFGGGTKLEIK
notes: murine mAb
B10: SC16.10 (antibody, V domains shown)
VH: QVTLKESGPGILQSSQTLSLTCSFSGFSLSTSGMGVGWIRQPSGKGLEWLAHIWWDDVKRYNPVLKSRLTISKDTSSSQVFLKIASVDTADTATYYCARLVDDLYYFDYWGQGTTLTVSS
VL: QIVLTQSPAIMSASLGERVTMTCTASSSVSSSYLHWYQQKPGSSPKLWIYSTSNLASGVPTRFSGSGSGTSYSLTISSMEAEDAATYYCHQYHRSPFTFGSGTKLEIK
notes: murine mAb
B11: SC16.123 (antibody, V domains shown)
VH: QVALKESGPGILQPSQTLSLTCSFSGFSLSTSGMGVGWIRQPSGKGLEWLAHIWWDDVKRYNPALKSRLTISKDTSSSQVFLKIASVDTADTATYYCARMEDYGSSSYFDFWGHGTTLTVSS
VL: QIVLTQSPAIMSASLGERVTMTCTASSSVSSSYLHWYQQKPGSSPKLWIYSTSNLASGVPARFSGSGSGTSYSLTISSMETEDAATYYCHQYHRSPFTFGSGTKLEIK
notes: murine mAb
B12: SC16.118 (antibody, V domains shown)
VH: EVQLQQSGPDLVKPGASVKISCKASGYSFTGYYMHWVKQSHGKSLEWIGRVNPNNGGTSYNQKFKGKAILTADKSSSTAYMELRSLTSEDSAVYYCARGSYDYAEGWGQGTLVTVSA
VL: DIVLTQSPASLAVSLGQRATISCKASQSVDYDGDSYLTWYQQKPGQPPKLLIYAASNLESGIPARFSGSGSGTDFTLNIHPVEEEDAATYYCQQSNEDPYTFGGGTKLEIKR
notes: murine mAb
B13: SC16.134 (antibody, V domains shown)
VH: EVQLQQSGPDLVKPGASVKISCKASGYSFTGYYMHWVKQSHGKRLEWIGRVNPNNGGTNYNQKFKGKAILTVDKSSSTAYMELRSLTSEDSAVYYCARGSYDNAEGWGQGTLVTVSA
VL: DIVLTQSPASLAVSLGQRATISCKASQSVDHAGDSYMNWYQQKPGQPPKLLIYAASNLESGIPARFSGSGSGTDFTLNIHPVEEEDAATYYCQQSNEDPYTFGGGTKLEIKR
notes: murine mAb
B14: SC16.124 (antibody, V domains shown)
VH: EVQLQQSGPELVKPGASVKMSCKASGYTFTSYVMHWVKQKPGQGLEWIGYINPYNDGTKYNEKFKGKATLTSDKSSSTAYMELSSLTSEDSAVYYCARGALYYGNYLGYFDVWGAGTTVTVSS
VL: DIQMTQSPASQSASLGESVTITCLASQTIGTWLAWYQQKPGKSPQLLISAATSLADGVPSRFSGSGSGTKFSFKISSLQAEDFVSYYCQQLYSTPWTFGGGTKLEIK
notes: murine mAb
B15: SC16.132 (antibody, V domains shown)
VH: QVQLKESGPGLVAPSQSLSITCTVSGFSLTDYGVSWIRQPPGKGLEWLGVVWGGGSTYYNSALKSRLSITKDNSKSQVFLKMNSLQTDDTAMYYCAKQRGQYGAYWGQGTLVTVSA
VL: DIQMTQSPASQSASLGESVTITCLASQTIGTWLAWYQQKPGKSPQLLIYAATSLADGVPSRFSGSGSGTKFSFKISSLQAEDFVSYYCQQLYSTPWTFGGGTKLEIK
notes: murine mAb
B16: SC16.138 (antibody, V domains shown)
VH: QVQLKESGPGLVAPSQSLSITCTVSGFSLTDYGVSWIRQPPGKGLEWLGVVWGGGSTYYNSALKSRLSISKDNSKSQVFLKMNSLQTDDTAMYYCAKQRGQYGAYWGQGTLVTVSA
VL: DIQMTQSPASQSASLGESVTITCLASQTIGTWLAWYQQKPGKSPQLLIYSATSLADGVPSRFSGSGSGTKFSFKISSLQAEDFVSYYCQQLYSTPWTFGGGTKLEIK
notes: murine mAb
B17: SC16.121 (antibody, V domains shown)
VH: EVQLVESGGGLVQPKGSLKLSCAASGFTFNTYAMNWVRQAPGKGLEWVARIRIKSNNYATYYADSVKDRFTISRDDSQNMLYLQMNNLKTEDTAVYYCVRQGYSYDWGPWFAYWGQGTLVTVSA
VL: QIVLTQSPAIMSASPGEKVTITCSASSSVSYMHWFQQKPGTSPKLWIYSTSNLASGVPARFSGSGSGTSYSLTISRMEAEDAATYYCQQRSSYPPTFGGGTKLEIKR
notes: murine mAb
B18: SC16.11 (antibody, V domains shown)
VH: QIQLVQSGPELKKPGETVKISCKASGYTFTDYSMHWVKQAPGKGLKWMGWINTETVEPTYADDFMGRFAFSLETSASTAFLQINNLENEDTATYFCARFGSYAMDYWGQGTSVTVSS
VL: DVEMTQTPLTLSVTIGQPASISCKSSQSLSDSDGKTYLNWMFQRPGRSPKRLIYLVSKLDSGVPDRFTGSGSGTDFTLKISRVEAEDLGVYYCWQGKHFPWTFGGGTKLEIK
notes: murine mAb
B19: SC16.135 (antibody, V domains shown)
VH: QVQLQQSGAELVRPGTSVKVSCKASGYAFTNYLIEWVKQRPGQGLEWIGVINPGSGGTNSNEKFKAKATLTADKSSSTAYMQLSSLTSADSAVYFCARSDYDYAFYAMDYWGQGTSVTVSS
VL: DIKMTQSPSSMYASLGERVTITCKASQDINRYLSWFQQKPGKSPKTLIYRANRLVDGVPSRFSGSGSGQDYSLTISSLEYEDMGIYYCLQYDEFPFTFGSGTKLEIK
notes: murine mAb
B20: SC16.122 (antibody, V domains shown)
VH: EVQLVESGGGLVKPGGSLKLSCAASGFTFSDYYMFWVRQTPEKRLEWVATISDGGSYTYFPDSVKGRFTISRDNAQNNLYLQMSSLKSEDTAMYYCARAGTLYAMDYWGQGTSVTVSS
VL: DIVMTQSQKFMSTSVGDRVSVTCKASQNVGTNVAWYQQKPGQSPKVLIYSASYRYSGVPDRFTGSGSGTDFTLTISNVQSEDLAEFFCQQYNSYPLTFGGGTKLEIK
notes: murine mAb

This assay addresses T1, human DLL3 antigen. Put plainly: ELISA or flow cytometry screen. (In general: ELISA stands for enzyme-linked immunosorbent assay.)
For B1, the binding result is “binds”. Turning to B2, the binding result is “binds”. Regarding B3, the binding result was “binds”. As for B4, the binding result is listed as “binds”. Then B5, with “binds”. As for B6, the binding result was “binds”. Regarding B7, the binding result was “binds”. In the case of B8, the binding result is “binds”. On to B9, for which the binding result is given as “binds”. To B10 belongs “binds”; to B11, “binds”.

In the case of B12, the binding result was “binds”. With B13, the binding result was “binds”. Consider B14, for which the binding result was “binds”.

B15: the binding result is “binds”. Then B16, with “binds”; and B17, with “binds”. For the molecule B18, the binding result was “binds”. For B19, the binding result is on record as “binds”. Take B20: the binding result is reported as “binds”.
